Reference: patent US7985404B1, “Reducing hair growth, hair follicle and hair shaft size and hair pigmentation” (Johnson & Johnson Consumer Companies, Inc., priority 1999, dated 2011)

B1: STI: soybean-derived serine protease inhibitor protein from Sigma-Aldrich, used in PBS-liposome vehicle (protein, UniProt P01070 25-205, looked up)
Trypsin inhibitor A: DFVLDNEGNPLENGGTYYILSDITAFGGIRAAPTGNERCPLTVVQSRNELDKGIGTIISSPYRIRFIAEGHPLSLKFDSFAVIMLCVGIPTEWSVVEDLPEGPAVKIGENKDAMDGWFRLERVSDDEFNNYKLVFCPQQAEDDKCGDIGISIDHDDGTRRLVVSKNKPLVVQFQKLDKESL
B2: BBI: soybean-derived serine protease inhibitor protein from Sigma-Aldrich, used in PBS-liposome vehicle (protein, UniProt P01055 40-110, looked up)
Bowman-Birk type proteinase …: DDESSKPCCDQCACTKSNPPQCRCSDMRLNSCHSACKSCICALSYPAQCFCVDITDFCYEPCKPSEDDKEN

Tests used:
trypsin = assay: Enzchek protease digestion fluorescent assay with trypsin; type: biochemical; details: 100 units of trypsin; increasing concentrations / serial dilutions
Protocol: In order to support the hypothesis that STI and BBI in soymilk are involved in the hair growth effects described above, we tested soymilk for its serine protease inhibitory activity. An enzymatic assay was performed using “Enzchek”, a protease digestion fluorescent test system made by Molecular Probes of Eugene, Oreg. Using 100 units of trypsin (from Sigma chemicals, St. Louis Mo.) the test system produced fluorescence reading of about 1100 units. This reaction was inhibited with increasing concentrations of STI, as expected from a known trypsin inhibitor.

C57Bl/6 mice = assay: Depilation-induced hair cycle in C57Bl/6 mice, daily topical treatment; type: in vivo, mouse; details: day eight of the hair cycle (FIG. 10), PBS-liposome vehicle
Excerpt: (§1) C57BI/6 or C3H mice (male and female) were obtained from Charles River (Kingston, NY), at 8-10 weeks of age and were in the resting (telogen) phase of their respective hair cycle. Hair growth was induced by wax depilation (plucking) of each respective animal's back fur according to the procedure set forth in Stenn, et al., “Glucocorticoid Effect on Hair Growth Initiation: A Reconsideration,” 6 Skin Pharmacol., 125-134 (1993). In C57Bl/6 and C3H mice, 8-10 weeks old, the growth phase (anagen) starts synchronously in all hair follicles at the time of depilation.
Since the murine hair cycle varies not only between strains, but also amongst individual animals, the status of the hair cycle was analyzed in each animal on study. A 2 cm by 1 cm skin sample was isolated from each mouse with scissors, fixed with a 10% buffered formalin solution having a pH of about 6.9-7.1 at 25° C. (Stephens Scientific), and then formed into a paraffin block according to well-known procedures. The block was then microtomed, and sections were stained with H&E or Fontana-Mason stain. Sections were examined histologically in order to verify the phase of the hair cycle, the size of the hair follicle and hair shaft and the level of hair pigmentation, using procedures well known in the art. Hair length was assessed visually, and by using a low magnification (×8) dissecting microscope. […]

C3H mice = assay: Depilation-induced hair cycle in C3H mice, daily topical treatment; type: in vivo, mouse; details: for hair follicle histology: 1%, day seven of the hair cycle; for hair follicle histology / effect on hair growth and pigmentation: PBS-liposome vehicle; for effect on hair growth and pigmentation: high concentrations; for hair growth, follicle and shaft size, visual observation throughout the hair cycle: in PBS-liposome vehicle (FIG. 9)
Excerpt: as §1
Since the murine hair cycle varies not only between strains, but also amongst individual animals, the status of the hair cycle was analyzed in each animal on study. A 2 cm by 1 cm skin sample was isolated from each mouse with scissors, fixed with a 10% buffered formalin solution having a pH of about 6.9-7.1 at 25° C. (Stephens Scientific), and then formed into a paraffin block according to well-known procedures. The block was then microtomed, and sections were stained with H&E or Fontana-Mason stain. Sections were examined histologically in order to verify the phase of the hair cycle, the size of the hair follicle and hair shaft and the level of hair pigmentation, using procedures well known in the art. Hair length was assessed visually, and by using a low magnification (×8) dissecting microscope.
In order to verify that the effect of soymilk on hair growth is not specific to C57Bl/6 mice, we repeated the experiment described in Example 4 using the brown haired (Agouti) C3H mice. The results of these experiments were similar both visually and histologically.

| Molecule | inhibition of trypsin reaction (trypsin) | hair follicle histology (C57Bl/6 mice) | hair follicle histology (C3H mice) | effect on hair growth and pigmentation (C3H mice) | hair growth, follicle and shaft size, visual observation throughout the hair cycle (C3H mice) |
| --- | --- | --- | --- | --- | --- |
| B1 | inhibited | smaller and less pigmented follicles | reduce hair follicle and hair shaft size and hair shaft pigmentation | substantial | could delay hair growth and reduce hair follicle and hair shaft size |
| B2 |  | smaller and less pigmented follicles | reduce hair follicle and hair shaft size and hair shaft pigmentation | substantial | could delay hair growth and reduce hair follicle and hair shaft size |
